A word on the EC50 (read off the curve): it is the midpoint of the concentration-response curve. A low value points to an effect from little substance.

Positions count from the first letter of the chain named.

B1: hz1H9v2 sdAb (hz1H9v2 VHH domain fused to human IgG1 xELL Fc region) (Fc fusion)
chain: EVQLVESGGGEVQPGGSLRLSCAASGSIFSISIMGWYRQAPGKERELVASTTSSGTTNYVESVKGRFTISRDNAKNTLYLQMSSLRAEDTAVYYCHAYIATTTDRGYRGYWGQGTLVTVDKTHTCPPCPAPGGPSVFLFPPKPKDTLMISRTPEVTCVVVDVSHEDPEVKFNWYVDGVEVHNAKTKPREEQYNSTYRVVSVLTVLHQDWLNGKEYKCKVSNKALPAPIEKTISKAKGQPREPQVYTLPPSRDELTKNQVSLTCLVKGFYPSDIAVEWESNGQPENNYKTTPPVLDSDGSFFLYSKLTVDKSRWQQGNVFSCSVMHEALHNHYTQKSLSLSPGK
notes: VHH-Fc; no linker stated; also called hz1H9v2-IgG1
B2: hz1G3v3 sdAb (hz1G3v3 VHH domain fused to human IgG1 xELL Fc region) (Fc fusion)
chain: EVQLVESGGGEVQPGGSLRLSCAASGFTFSSYAMGWFRQAPGKGREWVAAITTSGDTTYYAESVKGRFTISRDNAKNTVYLQMSSLRAEDTAVYYCAAHRGGGVIDYWGQGTLVTVDKTHTCPPCPAPGGPSVFLFPPKPKDTLMISRTPEVTCVVVDVSHEDPEVKFNWYVDGVEVHNAKTKPREEQYNSTYRVVSVLTVLHQDWLNGKEYKCKVSNKALPAPIEKTISKAKGQPREPQVYTLPPSRDELTKNQVSLTCLVKGFYPSDIAVEWESNGQPENNYKTTPPVLDSDGSFFLYSKLTVDKSRWQQGNVFSCSVMHEALHNHYTQKSLSLSPGK
notes: VHH-Fc; no linker stated; also called hz1G3v3-IgG1
B3: 1E4 sdAb (1E4 VHH domain fused to human IgG1 xELL Fc region) (Fc fusion)
chain: QVQLQQSGGGSVQAGGSLRLSCVASGSGFSASLMSWHRQAPGSQRDLVASITRDGRANYVDSVKDRFTISRDNAKNTAYLQMDSLKPEDTAAYYCHAYSFDYPIRSYWGQGTQVTVDKTHTCPPCPAPGGPSVFLFPPKPKDTLMISRTPEVTCVVVDVSHEDPEVKFNWYVDGVEVHNAKTKPREEQYNSTYRVVSVLTVLHQDWLNGKEYKCKVSNKALPAPIEKTISKAKGQPREPQVYTLPPSRDELTKNQVSLTCLVKGFYPSDIAVEWESNGQPENNYKTTPPVLDSDGSFFLYSKLTVDKSRWQQGNVFSCSVMHEALHNHYTQKSLSLSPGK
notes: VHH-Fc; no linker between VHH and Fc is stated; also called 1E4-IgG1
B4: hz1E4v2 sdAb (hz1E4v2 VHH domain fused to human IgG1 xELL Fc region) (Fc fusion)
chain: EVQLVESGGGEVQPGGSLRLSCAASGSGFSASLMSWHRQAPGKQRDLVASITRDGRANYVESVKGRFTISRDNAKNTLYLQMSSLRAEDTAVYYCHAYSFDYPIRSYWGQGTLVTVDKTHTCPPCPAPGGPSVFLFPPKPKDTLMISRTPEVTCVVVDVSHEDPEVKFNWYVDGVEVHNAKTKPREEQYNSTYRVVSVLTVLHQDWLNGKEYKCKVSNKALPAPIEKTISKAKGQPREPQVYTLPPSRDELTKNQVSLTCLVKGFYPSDIAVEWESNGQPENNYKTTPPVLDSDGSFFLYSKLTVDKSRWQQGNVFSCSVMHEALHNHYTQKSLSLSPGK
notes: VHH-Fc; no linker stated; also called hz1E4v2-IgG1
B5: 1H9 sdAb (1H9 VHH domain fused to human IgG1 xELL Fc region) (Fc fusion)
chain: EVQLQQSGGAVVQPGGSLRLSCAASGSIFSISIMGWYRQAPGKERELVASTTSSGTTNYVDSVKGRFTASRDNAKNTVYLQMNSLKPDDTAIYHCHAYIATTTDRGYRGYWGQGTQVTVDKTHTCPPCPAPGGPSVFLFPPKPKDTLMISRTPEVTCVVVDVSHEDPEVKFNWYVDGVEVHNAKTKPREEQYNSTYRVVSVLTVLHQDWLNGKEYKCKVSNKALPAPIEKTISKAKGQPREPQVYTLPPSRDELTKNQVSLTCLVKGFYPSDIAVEWESNGQPENNYKTTPPVLDSDGSFFLYSKLTVDKSRWQQGNVFSCSVMHEALHNHYTQKSLSLSPGK
notes: VHH-Fc; no linker stated; also called 1H9-IgG1
B6: 1C7 sdAb (1C7 VHH domain fused to human IgG1 xELL Fc region) (Fc fusion)
chain: QVQLQQSGGGLVQAGGSLRLSCAASGRTFSGYIMGWFRQVPGKERELVARISGNNLSTEYGGSVKGRFTISRDSAKETMYLQMNSLKPEDTAIYYCAAEYDYSSGDFVYWGQGTQVTVDKTHTCPPCPAPGGPSVFLFPPKPKDTLMISRTPEVTCVVVDVSHEDPEVKFNWYVDGVEVHNAKTKPREEQYNSTYRVVSVLTVLHQDWLNGKEYKCKVSNKALPAPIEKTISKAKGQPREPQVYTLPPSRDELTKNQVSLTCLVKGFYPSDIAVEWESNGQPENNYKTTPPVLDSDGSFFLYSKLTVDKSRWQQGNVFSCSVMHEALHNHYTQKSLSLSPGK
notes: VHH-Fc; no linker stated; also called 1C7-IgG1
B7: 1G3 sdAb (1G3 VHH domain fused to human IgG1 xELL Fc region) (Fc fusion)
chain: B2 chain with V5Q, E6Q, A23E, L113Q
notes: VHH-Fc; no linker stated
B8: G11 sdAb (G11 VHH domain fused to human IgG1 xELL Fc region) (Fc fusion)
chain: EVQLVQSGGGSVQVGGSLRLSCAASGSTLNIDHIGWYRQAPGKERELVGVISSGAGPNYADSVKGRFTISRDNAKNTVYLQMNSLKPEDTAVYNCNAWIDYGSGLPQNYWGQGTQVTVDKTHTCPPCPAPGGPSVFLFPPKPKDTLMISRTPEVTCVVVDVSHEDPEVKFNWYVDGVEVHNAKTKPREEQYNSTYRVVSVLTVLHQDWLNGKEYKCKVSNKALPAPIEKTISKAKGQPREPQVYTLPPSRDELTKNQVSLTCLVKGFYPSDIAVEWESNGQPENNYKTTPPVLDSDGSFFLYSKLTVDKSRWQQGNVFSCSVMHEALHNHYTQKSLSLSPGK
notes: VHH-Fc; no linker stated
B9: hzG11v2 sdAb (hzG11v2 VHH domain fused to human IgG1 xELL Fc region) (Fc fusion)
chain: B8 chain with Q6E, S11E, V14P, D61E, N83S, K86R, P87A, N94Y, Q115L
notes: VHH-Fc; no linker stated; also called hzG11v2-IgG1
B10: F02 sdAb (F02 VHH domain fused to human IgG1 xELL Fc region) (Fc fusion)
chain: QVQLVQSGGGLVQAGGSLRLSCAASGSISSYNVVGWYRQLSGNERGGRTMVAQINAYGDTNYANAVVGRFTISRDDAKNTVYLHMSNLKPEDTGVYYCNGQRMLENYTYRDQSWGQGTQVTVDKTHTCPPCPAPGGPSVFLFPPKPKDTLMISRTPEVTCVVVDVSHEDPEVKFNWYVDGVEVHNAKTKPREEQYNSTYRVVSVLTVLHQDWLNGKEYKCKVSNKALPAPIEKTISKAKGQPREPQVYTLPPSRDELTKNQVSLTCLVKGFYPSDIAVEWESNGQPENNYKTTPPVLDSDGSFFLYSKLTVDKSRWQQGNVFSCSVMHEALHNHYTQKSLSLSPGK
notes: VHH-Fc; no linker stated; also called F02-IgG1
B11: hzB07v7 sdAb (hzB07v7 VHH domain fused to human IgG1 xELL Fc region) (Fc fusion)
chain: EVQLVESGGGEVQPGGSLRLSCAASGRTISDYVVGWFRQAPGKERAFVAAISRYGTTYYAASVQGRFTISRDNPRNTVYLQVDSLRAEDTAVYYCAALQNDVRNNHSPTSYDYWGQGTLVTVDKTHTCPPCPAPGGPSVFLFPPKPKDTLMISRTPEVTCVVVDVSHEDPEVKFNWYVDGVEVHNAKTKPREEQYNSTYRVVSVLTVLHQDWLNGKEYKCKVSNKALPAPIEKTISKAKGQPREPQVYTLPPSRDELTKNQVSLTCLVKGFYPSDIAVEWESNGQPENNYKTTPPVLDSDGSFFLYSKLTVDKSRWQQGNVFSCSVMHEALHNHYTQKSLSLSPGK
notes: VHH-Fc; no linker stated; also called hzB07v7-IgG1

The first test deals with T1, CD33M, full length human CD33 protein expressed on transfected cells (human, UniProt P20138 18-303).
T1 construct: also called full length CD33
T1 sequence (P20138 18-303): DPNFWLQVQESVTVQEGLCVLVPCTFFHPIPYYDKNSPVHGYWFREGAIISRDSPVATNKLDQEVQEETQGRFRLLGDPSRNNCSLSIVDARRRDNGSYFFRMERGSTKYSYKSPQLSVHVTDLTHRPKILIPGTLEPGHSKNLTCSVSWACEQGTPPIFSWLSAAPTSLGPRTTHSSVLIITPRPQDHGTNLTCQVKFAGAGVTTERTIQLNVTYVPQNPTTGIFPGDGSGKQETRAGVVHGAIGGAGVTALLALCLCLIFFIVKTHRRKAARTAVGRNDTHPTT
Put plainly: flow cytometry on MOLM-13 cells transfected with CD33 (CD33M per Table 3), anti-human IgG Alexa Fluor 647 secondary, median fluorescence. The procedure:
(§1) Binding of sdAbs to human CD33 was assessed by flow cytometry. […] MOLM-13 cells were transiently transfected with a plasmid encoding a sequence comprising “CD33M” (SEQ ID NO: 112) or a plasmid encoding a sequence comprising a truncated version, “CD33m” (SEQ ID NO: 113). The sequence encoded by the CD33M plasmid includes the leader sequence, full extracellular domain, transmembrane domain, and cytoplasmic domain. The sequence encoded by the CD33m plasmid includes the leader sequence, the membrane proximal IgC2 domain, and the transmembrane domain. Untransfected HEK 293 cells were used as CD33-negative cells. Each cell type was plated at 30,000 cells/well in FACS buffer (PBS 1% BSA, 0.1% NaN₃ pH 7.4) on a 96-well round-bottom plate. The sdAbs were diluted in FACS buffer in a 3-fold, 11 point serial dilution. The sdAb dilutions were added to the plated cells, and assay plates were incubated for 30 minutes at 4° C. After washing twice in 150 μL of FACS buffer, cells in each well were resuspended in 100 μL of 1:2000 Alexa Fluor 647-conjugated Anti-Human IgG secondary diluted in FACS buffer and incubated at 4° C. for 30 minutes. The cells were washed twice more, then bound antibody was detected by flow cytometry.
(§2) Flow cytometric analysis was performed on an Intellicyte iQue Plus and fluorescence was plotted as median fluorescence intensity. The apparent affinity (Kd, nM) was determined using one site binding non-linear regression in PRISM graph software.
Background: Flow cytometry measures light scatter and fluorescence of single cells or particles in a stream.
B1: the “EC50 (read off the curve)” value was around 0.3 nM. Regarding B2, the “EC50 (read off the curve)” value is around 2 nM.

Turning to B3, the “EC50 (read off the curve)” value is around 0.07 nM. On the same count and under the same terms, to B4 belongs around 0.3 nM. The same measure, in the same setting: to B5 belongs around 0.2 nM.

For another test, the target named is T1, CD33M, full length human CD33 protein …. Put plainly: flow cytometry on cells transfected with CD33M; apparent Kd, one-site fit. The protocol: as §1, §2
B6: the Kd came to 6.64 nM.

For the molecule B1, the Kd amounted to 0.27 nM. As to B7, the Kd was found to be 0.49 nM. For B2, the Kd is 1.6 nM. For B3, the Kd is 0.05 nM.

On to B8, for which the Kd is 1.1 nM. The same measure, in the same setting: to B9 belongs 2.67 nM.

As to B10, the Kd is 15.2 nM. The same measure, in the same setting: under B4 stands 0.32 nM.

B11: the Kd was 0.75 nM. The same measure, in the same setting: to B5 belongs 0.14 nM.

For a further test the target is unchanged. Description: flow cytometry on cells labelled CD33M-HEK-293, anti-human IgG Alexa Fluor 647 secondary, median fluorescence. The procedure: Binding of sdAbs to human CD33 was assessed by flow cytometry. […] […] The sequence encoded by the CD33M plasmid includes the leader sequence, full extracellular domain, transmembrane domain, and cytoplasmic domain. The sequence encoded by the CD33m plasmid includes the leader sequence, the membrane proximal IgC2 domain, and the transmembrane domain. Untransfected HEK 293 cells were used as CD33-negative cells. Each cell type was plated at 30,000 cells/well in FACS buffer (PBS 1% BSA, 0.1% NaN₃ pH 7.4) on a 96-well round-bottom plate. The sdAbs were diluted in FACS buffer in a 3-fold, 11 point serial dilution. The sdAb dilutions were added to the plated cells, and assay plates were incubated for 30 minutes at 4° C. After washing twice in 150 μL of FACS buffer, cells in each well were resuspended in 100 μL of 1:2000 Alexa Fluor 647-conjugated Anti-Human IgG secondary diluted in FACS buffer and incubated at 4° C. for 30 minutes. The cells were washed twice more, then bound antibody was detected by flow cytometry.
as §2
On to B9, for which the “EC50 (read off the curve)” value was around 2 nM. Still for that read-out and setting: under B11 stands around 0.7 nM.

The target of the next test is T2, CD33m, truncated human CD33 protein expressed on transfected cells (human, UniProt P20138 140-259).
T2 construct: leader and transmembrane domain are not in it; also called truncated CD33
T2 sequence (P20138 140-259 limits assumed): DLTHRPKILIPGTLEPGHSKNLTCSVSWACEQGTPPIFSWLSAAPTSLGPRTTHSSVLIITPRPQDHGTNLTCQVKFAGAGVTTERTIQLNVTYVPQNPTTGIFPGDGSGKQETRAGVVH
Put plainly: flow cytometry on cells transfected with truncated CD33m; apparent Kd, one-site fit. The protocol:
as §1, §2
As for B10, the Kd worked out at 5.15 nM.

The values above are taken from patent US20200347133A1 (INHIBRX, published 2020).
